Data taken from the nanobody polyreactivity screen of Harvey et al. (2022).

test: yeast display, Sf9 membrane polyspecificity reagent, FACS + sequencing; frameworks hold sequencing errors
How it was run: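 Using colony PCR, genes from sorted yeast display clones were amplified, then sequenced on MiSeq at 2 × 250 and filtered by CDR length. The clones had been stained with 10% biotinylated, detergent-solubilized Sf9 membrane reagent for 1 hour at 4 °C and sorted by FACS into low and high (top ~1%) gates on anti-HA and streptavidin fluorescence. Polyreactivity labels come from the gate of origin.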

Sequence	polyreactivity (PSR sort gate)
QVQLVESGGGLVQAGGSLRLSCPPSGTFSFYAMGWYRQAPGKERELVATIRSGGRTYYADSVKGRFTISRDNAKNTVYLQMNSLKPEDTAVYYCAAASTKLSGSDYDYWGQGTQVTVSS	high polyreactivity
QVQLVESGGGLVQAGGSLRLSCAASGITFADNAMGWYRQAPGKERELVARISRGGRTNYADSVKGRFTISRDNAKNTVYLQMNSLKPEDTAVYYCAADKSSYEYYWGQGTQVTVSS	high polyreactivity
QVQLVESGGGLVQAGGSLRLSCAASGRIFTFYAMGWYRQAPAKERELVAAISSGGSTYYADSVKGRFTISRDNAKNTVYLQMNSLKPEDTAVYYCAAEPVWYADYDYWGQGTQVTVSS	low polyreactivity
QVQLVESGGGLVQAGGSLRLSSAASGSTSRYYDMGWYRQSPGKVRELVAAITWSGGTTYYADSVKGRFTISRDNAKNTVYLQMNSLKPDDPAVYYCAADASYTYYEFVYWGQGTQVTVSS	low polyreactivity
QVQLVESGGGLVQAGGSLRLSCAASGFTLVNNAMGWYRQAPGKERELVAAISKRAGRTYYADSVKGRFTISRDNAKNTVYLQMNSLKPEDTAVYYCNAGKRVEYDYWGQGTQVTVSS	high polyreactivity
QVQLVESGGGLVQAGGSLRLSCAASGFTFYRNAMGWYRQAPWKERELVATITRSGGSKYYADSVKGRFTISRDNAKNTVYLQMNSLKPEDTEVYYCNDAISGVLVHGNYWGQGTQVTVSS	low polyreactivity
QVQLVESGGGLVQAGGSLRLSCAASGRTFTGYAMGWYRQAPGKEREFVAAITQRGGSTYYADSVKGRFTISRDTAKNTVYLQMNSLKPEDTAVYYCAARRRYKMDYWGQGTQVTVSS	high polyreactivity
QVHLVETVGGLVKAGGSLRLSFAASGSIFTSNDMGWYRQEPGKERELVAAISSGGRTYYADSVKGRFTISRDNAKNTVYLQMNSLKPEYTAVYYCAVDPHLYALRGAVYYWGQGTQVTVSS	low polyreactivity
QVQLVESGGGLVQAGGSLRLSCAASGFTFLYNVMGWYRQAPGKERELVAAISQSGTDTYYADSVKGRFTISRDNAKNTVYLQKNSLKPEDTAVYYCATEYYSQPRDDYWGQGTQVTVSS	low polyreactivity
QVQLVESGGGLVQAGGRLRLSCAASGSIIHYYTMGWSRQAPGKERELVAAINWSGTRTYYADSVKGRFTISRDNAKNTVYLQMNSLKPEDTAVYYCAAESYYPAGIRVYWGQGTQVTVSS	high polyreactivity
QVQLVESGGGLVQAGRSLRLSCAASGSTFGSNAMGWYRLAPGKERELVAAITRRGGSTYYADSEKGRFTISRDNAKNTVYLQMNSLKPEDTAVYYCAAQIHPRRDYSAFDYWGQGTQVTVSS	low polyreactivity
QVQLVESGGRLVQAGGSLRLSCAASGFIFYSYDMGWYRQAPGKERELVAAIDSRGVNTYYADSVKGRFTISRDNAKNTVYLQMNSLKPEDTAVYYCAAEVVYPVYEYDYWGQGTQVTVSS	low polyreactivity
QVQLVESGGGLVQAGGSLRLSCAASGSTFAYNAMGWYRQAPGKERELVASISWTGGSTYYADSVKGRFTISRDNAKNTVYLQMNSLKPEDTAVYYCAVDWLEGYEFDSWGQGTQVTVSS	low polyreactivity
QVQLVESGGGLVQAGGSLRLSCAASGRTFTPYAMGWYRQAPGKERELVAAINSDGSTNYADSVKGRFTISRDNAKNTVYLQMNSLKPEDTAVYYCAAGYSLEGDYWGQGTQVTVSS	low polyreactivity
QVQLVESGGGLVQAGGSLRLICAASGSTFAGNTMGWYRQAPGKERELVATITSDGSTDYADSVKGRFTISRDNAKNTVYYQMNSLKAEDPAVYYCAKARGLSKMDSWGQGTQVTVSS	low polyreactivity
QVQLVESGGGLVQAGGSLRLSCAASGFTFTRYAMGWYRQAPGKERELVAVITSSGTSTYYADSVKGRFTISRDNAKNTVYLQMNSLKPEDTAVYYCAARTHRRDFYYWGQGTQVTVSS	high polyreactivity
QVQLVESGGGLLQAGGSLRLSCAASGRTFSGYTMGWYRQAPGKERELLATIRDRGGSTYYADSVKGRFTISRDNAKNTVYLQMNSLTPEDSAVYYCAARRGRRYYYWGQGTQVTVSS	high polyreactivity
QVHLVEAGGGLVQAGGSLRYSCAASGYTFKLYAMGWYRQAPGKESELVAAITSGGSTSFADSVKGRFTISRDNAKNTVYLQMNSLKPEDTAVYYCAKRYSSYRAWYRNVGYYYWGLGTQVTVSS	high polyreactivity
QVQLVESGGGLVQAGGSLRLSCAASGSIFDDYAMGWYRQAPGKERELVAAISSSGTSTYYADSVKGRFTISRDNAKNTVYLQMNSLKPEDTAVYYCAKYAGVYEYDYWGQGTQVTVSS	low polyreactivity
QVQLVESGGGLVQAGGSLRLSCAASGGIFTPYAMGWYRQAPGKERELVAAISRSGGSTYYADSVKGRFTISRDNAKNTVYLQMNSLKPEDTAVYYCNALFRALKAFSQYNYWGQGTQVTVSS	high polyreactivity
QVQLVESGGGLVQAGGSLRLSCAASGRTFADNAMGWYRQAPGKERELVASISSGTSTNYADSVKGRFTISRDNAKNTVYLQMNSLKPEDTAVYYCAADFSVYTEEDDSWGHGTQVTVSS	low polyreactivity
QVQLVESGGGLVQAGGSLRLSCAASGFIFSLYAMGWYRQAPGKERELVAAINWNGGRTYYADSVKGRFTISRDNAKNTVYLQMNSLKPEDTAVYYCAKLGYLGLDYWGQGTQVTVSS	high polyreactivity
QVQLVESGGGLVQAGGSLRLSCAASGFTFYGNAMGWYRQAPGKERELVAAISGRGGSTYYADSVKGRFTISRDNAKNTVYLQMNSRKPEDTAVYYCNKRGPYRWYSAPYGYWGQGTQVTVSS	low polyreactivity
QVQLVESGGGLVQAGGSLRLSWAASGGTFYFNAMGWYLQAAGKEWELVATIRYSGGSTYYADSVKGRFTISRDNAKNTAYLQMNSLKPADTAVYYCNARPRYLSPYRPFKYNYWGQGTQVTVSS	high polyreactivity
QVQLVESGGGLVQAGRNLRLSCAASGRTFYNNVMGWYRQAPGKERELVAAIDWNDGSTYYADSVKGRFTISRDKAKNTVFLQMNSLKPEDTAVYYCAADAYGYGGDSWGQGTQVTVSS	low polyreactivity
QVQLVESGGGLVQAGGSLRLSCAASGRIFYPYAMGWYRQAPGKERELVAAISRSGGSTYYADSVKGRFTISRDNAKNTVYLQMNSLKPEDTAVYYCAARRGFGPDGEMDYWGQGTQVTVSS	low polyreactivity
QVQLVESGGGLVQAGGSLRLSCAASGSIFPHYAMGWYRQAPGKERELVATIRSRSGSTYYADSVKGRFTISRDNAKNTVYLQMNSLKPEDTAVYYCAKDNSLFQRDYWGQGTQVTVSS	low polyreactivity
QVQLVESGGGLVQAGGSLRLSCAASGRIFYYYAMGWYRQAPGKEREFVADISARGGSTYYADSVKGRFTISRDTAKNTVYLQMNSLKPEDTAVYYCAATTGLYTRYGYWGQGTQVTVSS	high polyreactivity
QLQLVESGGGLVQAGGSLRLSCAASGSIFYGYAKGWYRQAPGTERELVAAINTSGGSTFYADSVKGRFTISRDNANNTVYLQMNSLKPEDTAVYYCAAERYRYRSTDTMGYWGQGTQVTVSS	low polyreactivity
QVQLVESGGGIVQAGGSLRLSCAASGFIFHLYGMGWYRQAPGKERELVAAISSGGRTYYADSVKGRFTISRDNAKNTVSLQMNSLKPEDTAVYSCAVYVAYLYSYYYWGQGTQVNVSS	low polyreactivity
